What was measured:
[1] = system: angiogenesis induced by SB-HSA cells; test: corneal pocket angiogenesis assay with sponges containing SB-HSA cells; type: in vivo; conditions: BALB/c mice, sponges with 70,000 SB-HSA cells in cornea; continuous subcutaneous infusion by osmotic pump from day 2; examined one week after treatment; vs PBS-treated control
Procedure: IL-12 is a cytokine with both immunostimulatory and antiangiogenic effects. In these experiments, sponges containing 70,000 SB-HSA cells were placed into the corneas of BALB/c mice. Two days after placement of the sponges, the mice were randomized to receive either mrIL-12 or phosphate buffered saline. Each was delivered as a continuous subcutaneous infusion by subcutaneously implanted osmotic pumps. One week after treatment, mice were injected with FITC-dextran, euthanized and the corneas examined.
Polyvinyl sponges (Rippey, Eldorado Hills, Calif.) preirradiated with 2000 Gy of gamma irradiation (cesium source) were cut into 4×4×2 mm pieces, and 70,000 SB-HSA cells were introduced into the sponges. BALB/c mice were anesthetized with AVERTIN and a small surgical micropocket was created in the center of the avascular cornea. Sponges were then inserted into the micropocket. Eyes were examined for neovascularization daily using an ophthalmic microscope (Carl Zeiss Inc, Thornwood, N.Y.). […] Phase contrast and fluorescence microscopy were used to visualize the general layout of the cornea and the presence of perfused blood vessels, respectively (Muthukkaruppan, V. and Auerbach, R. Science 1979 205:1416–1418).

[2] = system: SB-HSA tumors; test: treatment of SB-HSA tumor-bearing mice (subcutaneous canine hemangiosarcoma xenograft); type: in vivo; conditions: NOD-SCID mice injected s.c. with SB-HSA cells, vs PBS control
Procedure: For example, IL-12 was also shown, to suppress the growth of canine hemangiosarcoma in vivo in this model. IL-12 is a cytokine with pleotropic effects including suppression of angiogenesis due to in vivo inhibition of endothelial cell growth. This activity is mediated by downstream chemokines such as IP-10 and Mig, which are induced by interferon-γ in response to IL-12. […] Control mice that were injected subcutaneously with SB-HSA cells and received phosphate buffered saline developed tumors at the site of cell inoculation by the second week that progressively enlarged over a 4-week observation period.
Canine hemangiosarcoma xenografts were established in NOD-SCID mice by injection of 5×10^6 SB-HSA cells suspended in 200 μl PBS over the dorsum using a 26 gauge needle and tuberculin syringe. Mice were examined every other day until tumors were detected and measured with calipers. Animals were sacrificed when tumors reached a size of 1 cm^3.
NOD-SCID mice were injected subcutaneously over the dorsum with SB-HSA cells (5×10^6 cells/200 μl). […] Pumps were designed to deliver 6 μl/day (1 μg IL-12/day for four weeks. The mice were examined every other day for tumor development. The two largest perpendicular diameters were measured with calipers.

B1: Interleukin-12 (protein, UniProt P43431 23-215; P43432 23-335, looked up)
Interleukin-12 subunit alpha: RVIPVSGPARCLSQSRNLLKTTDDMVKTAREKLKHYSCTAEDIDHEDITRDQTSTLKTCLPLELHKNESCLATRETSSTTRGSCLPPQKTSLMMTLCLGSIYEDLKMYQTEFQAINAALQNHNHQQIILDKGMLVAIDELMQSLNHNGETLRQKPPVGEADPYRVKMKLCILLHAFSTRVVTINRVMGYLSSA
Interleukin-12 subunit beta: MWELEKDVYVVEVDWTPDAPGETVNLTCDTPEEDDITWTSDQRHGVIGSGKTLTITVKEFLDAGQYTCHKGGETLSHSHLLLHKKENGIWSTEILKNFKNKTFLKCEAPNYSGRFTCSWLVQRNMDLKFNIKSSSSSPDSRAVTCGMASLSAEKVTLDQRDYEKYSVSCQEDVTCPTAEETLPIELALEARQQNKYENYSTSFFIRDIIKPDPPKNLQMKPLKNSQVEVSWEYPDSWSTPHSYFSLKFFVRIQRKKEKMKETEEGCNQKGAFLVEKTSTEVQCKGGNVCVQAQDRYYNSSCSKWACVPCRVRS
corneal neovascularity [1]: significantly less corneal neovascularity
growth of tumors ([2]; continuous subcutaneous infusion 1 μg IL-12/day for four weeks): initially suppressed for two weeks followed by slower growth
tumor size at end of observation period ([2]; continuous subcutaneous infusion 1 μg IL-12/day, end of 4-week observation period): significantly smaller size

From patent US7223596B2, “Malignant endothelial cell line and uses thereof in models for angiogenesis” (Wisconsin Alumni Research Foundation, priority 2003, dated 2007)
